Patent publication US20230139516A1 (CEDARS SINAI MEDICAL CENTER, published 2023)

Tests used:
[1] = biological target: T1, receptor-interacting protein kinase 2 (RIPK2), endogenous (human, UniProt O43353 1-540); experiment: PLA of endogenous proteins in HEK293T and parental PC cells (FIG. 20A-B)
T1 construct: Endogenous protein detected in cells with anti-RIPK2 antibodies (PLA, IP)

[2] = biological target: T2, c-Myc (human, UniProt P01106-1 1-439, limits assumed); experiment: PLA of endogenous proteins in HEK293T cells (FIG. 21B)
T2 construct: also called c-Myc oncoprotein
T2 sequence (P01106 16-454 limits assumed): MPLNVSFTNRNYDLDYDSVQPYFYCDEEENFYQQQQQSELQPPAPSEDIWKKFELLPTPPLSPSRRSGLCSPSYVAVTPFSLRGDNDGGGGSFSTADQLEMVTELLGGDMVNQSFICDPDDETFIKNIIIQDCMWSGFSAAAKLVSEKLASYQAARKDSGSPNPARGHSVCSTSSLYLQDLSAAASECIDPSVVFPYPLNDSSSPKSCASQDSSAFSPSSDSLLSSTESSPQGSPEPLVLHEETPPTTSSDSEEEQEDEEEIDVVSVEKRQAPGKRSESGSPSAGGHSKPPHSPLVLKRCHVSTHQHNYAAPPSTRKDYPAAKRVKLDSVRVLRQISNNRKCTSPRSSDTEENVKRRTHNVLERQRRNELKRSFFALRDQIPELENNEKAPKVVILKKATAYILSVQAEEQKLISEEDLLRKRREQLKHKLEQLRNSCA

[3] = biological target: T3, 3×FLAG-tagged RIPK2 (RIPK2m4 with C-terminal 3×FLAG tag) (human, UniProt O43353 1-540); experiment: IP of RIPK2 complexes, label-free MS (heatmap and LFQ histogram, FIG. 5A-B)
T3 construct: The same label (3×Flag-tagged RIPK2, expressed in HeLa cells) is the enzyme of the in vitro kinase assay; also called RIPK2-Flag; RIPK2m4-3×FLAG; not shown: 3×FLAG tag fused to the C-terminus
T3 sequence (O43353 whole entry, the tested form may be a part): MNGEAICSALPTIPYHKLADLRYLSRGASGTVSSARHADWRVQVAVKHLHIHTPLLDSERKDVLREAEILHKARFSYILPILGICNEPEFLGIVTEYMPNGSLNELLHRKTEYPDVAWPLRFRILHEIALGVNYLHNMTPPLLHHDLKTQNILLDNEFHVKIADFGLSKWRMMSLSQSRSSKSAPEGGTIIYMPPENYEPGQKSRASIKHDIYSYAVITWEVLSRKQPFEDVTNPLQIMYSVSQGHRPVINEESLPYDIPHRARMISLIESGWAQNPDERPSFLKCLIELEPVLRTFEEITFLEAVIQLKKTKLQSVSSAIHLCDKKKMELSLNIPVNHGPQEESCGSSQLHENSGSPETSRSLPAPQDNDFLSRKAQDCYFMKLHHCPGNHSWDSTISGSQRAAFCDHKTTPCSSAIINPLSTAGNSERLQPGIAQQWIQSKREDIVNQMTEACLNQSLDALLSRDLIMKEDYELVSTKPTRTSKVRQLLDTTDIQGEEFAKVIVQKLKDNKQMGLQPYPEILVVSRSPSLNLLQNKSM

T1 sequence (O43353 whole entry): as the sequence (O43353 whole entry, the tested form may be a part) above

binding result [1]: binds
binding result [2]: binds
binding result [3]: binds
B1: MKK7 (MAP2K7), endogenous (enzyme, human, UniProt O14733 2-419, looked up)
chain: AASSLEQKLSRLEAKLKQENREARRRIDLNLDISPQRPRPTLQLPLANDGGSRSPSSESSPQHPTPPARPRHMLGLPSTLFTPRSMESIEIDQKLQEIMKQTGYLTIGGQRYQAEINDLENLGEMGSGTCGQVWKMRFRKTGHVIAVKQMRRSGNKEENKRILMDLDVVLKSHDCPYIVQCFGTFITNTDVFIAMELMGTCAEKLKKRMQGPIPERILGKMTVAIVKALYYLKEKHGVIHRDVKPSNILLDERGQIKLCDFGISGRLVDSKAKTRSAGCAAYMAPERIDPPDPTKPDYDIRADVWSLGISLVELATGQFPYKNCKTDFEVLTKVLQEEPPLLPGHMGFSGDFQSFVKDCLTKDHRKRPKYNKLLEHSFIKRYETLEVDVASWFKDVMAKTESPRTSGVLSQPHLPFFR
